Experimental data: the supplement of paper PMC11246515
± gives the standard deviation of the averaged measurements.

Test: total protein half-life in vivo (active degradation + dilution); higher = more stable protein
[1] = E. coli NCM3722 delta-clpP delta-lon delta-hslV, growth: N-lim chemostat, doubling time 6 h
[2] = E. coli NCM3722 delta-clpP, growth: N-lim chemostat, doubling time 6 h
[3] = E. coli NCM3722 delta-hslV, growth: N-lim chemostat, doubling time 6 h
[4] = E. coli NCM3722 delta-lon, growth: N-lim chemostat, doubling time 6 h
[5] = E. coli NCM3722 delta-smpB, growth: N-lim chemostat, doubling time 6 h
[6] = wild type E. coli NCM3722, growth: C-lim chemostat, doubling time 3 h
[7] = wild type E. coli NCM3722, growth: C-lim chemostat, doubling time 6 h
[8] = wild type E. coli NCM3722, growth: C-lim chemostat, doubling time 12 h
[9] = wild type E. coli NCM3722, growth: N-lim chemostat, doubling time 6 h
[10] = wild type E. coli NCM3722, growth: N-lim chemostat, doubling time 12 h
[11] = wild type E. coli NCM3722, growth: P-lim chemostat, doubling time 6 h
[12] = wild type E. coli NCM3722, growth: P-lim chemostat, doubling time 12 h

Sequence | total protein half-life in vivo [1] [h] | total protein half-life in vivo [2] [h] | total protein half-life in vivo [3] [h] | total protein half-life in vivo [4] [h] | total protein half-life in vivo [5] [h] | total protein half-life in vivo [6] [h] | total protein half-life in vivo [7] [h] | total protein half-life in vivo [8] [h] | total protein half-life in vivo [9] [h] | total protein half-life in vivo [10] [h] | total protein half-life in vivo [11] [h] | total protein half-life in vivo [12] [h]
MEALLQLKGIDKAFPGVKALSGAALNVYPGRVMALVGENGAGKSTMMKVLTGIYTRDAGTLLWLGKETTFTGPKSSQEAGIGIIHQELNLIPQLTIAENIFLGREFVNRFGKIDWKTMYAEADKLLAKLNLRFKSDKLVGDLSIGDQQMVEIAKVLSFESKVIIMDEPTDALTDTETESLFRVIRELKSQGRGIVYISHRMKEIFEICDDVTVFRDGQFIAEREVASLTEDSLIEMMVGRKLEDQYPHLDKAPGDIRLKVDNLCGPGVNDVSFTLRKGEILGVSGLMGAGRTELMKVLYGALPRTSGYVTLDGHEVVTRSPQDGLANGIVYISEDRKRDGLVLGMSVKENMSLTALRYFSRAGGSLKHADEQQAVSDFIRLFNVKTPSMEQAIGLLSGGNQQKVAIARGLMTRPKVLILDEPTRGVDVGAKKEIYQLINQFKADGLSIILVSSEMPEVLGMSDRIIVMHEGHLSGEFTREQATQEVLMAAAVGKLNRVNQE | 6.58 ± 1.1 | 5.992 ± 0.012 | 6.14 ± 0.13 | 5.71 ± 0.28 | 5.878 ± 0.015 | 3.11 ± 0.17 | 6.04 ± 0.086 | 11.3 ± 2.2 | 5.96 ± 0.35 | 12.7 ± 0.54 | 6.499 ± 0.06 | 12.2 ± 0.6
MIIRDENYFTDKYELTRTHSEVLEAVKVVKPGKTLDLGCGNGRNSLYLAANGYDVDAWDKNAMSIANVERIKSIENLDNLHTRVVDLNNLTFDRQYDFILSTVVLMFLEAKTIPGLIANMQRCTKPGGYNLIVAAMDTADYPCTVGFPFAFKEGELRRYYEGWERVKYNEDVGELHRTDANGNRIKLRFATMLARKK | 5.25 ± 0.98 | 4.08 ± 0.48 | 4.13 ± 0.29 | 5.98 ± 0.65 | 3.94 ± 0.12 | 2.93 ± 0.1 | 5.19 ± 0.19 | 8.23 ± 1.5 | 4.09 ± 0.12 | 6.9 ± 0.16 | 6.01 ± 0.67 | 11 ± 0.36
MSDSNSRLVYSTETGRIDEPKAAPVRPKGDGVVRIQRQTSGRKGKGVCLITGVDLDDAELTKLAAELKKKCGCGGAVKDGVIEIQGDKRDLLKSLLEAKGMKVKLAGG | 5.12 ± 0.14 | 4.16 | 3.29 ± 0.22 | 4.11 ± 0.81 | 3.04 ± 0.3 | 2.76 ± 0.65 | 4.11 ± 0.38 | 5.29 ± 0.51 | 3.15 | 5.059 ± 0.042 | 3.05 | 5.7 ± 0.6
MADTHHAQGPGKSVLGIGQRIVSIMVEMVETRLRLAVVELEEEKANLFQLLLMLGLTMLFAAFGLMSLMVLIIWAVDPQYRLNAMIATTVVLLLLALIGGIWTLRKSRKSTLLRHTRHELANDRQLLEEESREQ | 6.43 ± 0.14 | 6.06 ± 0.94 | 7.19 ± 0.63 | 5.35 ± 1.2 | 6.49 ± 0.34 | 2.99 ± 0.26 | 5.36 ± 0.18 | 11 ± 0.91 | 6.27 ± 0.46 | 11.7 ± 3.4 | 4.39 ± 0.56 | –
MKKIIALMLFLTFFAHANDSEPGSQYLKAAEAGDRRAQYFLADSWFSSGDLSKAEYWAQKAADSGDADACALLAQIKITNPVSLDYPQAKVLAEKAAQAGSKEGEVTLAHILVNTQAGKPDYPKAISLLENASEDLENDSAVDAQMLLGLIYANGVGIKADDDKATWYFKRSSAISRTGYSEYWAGMMFLNGEEGFIEKNKQKALHWLNLSCMEGFDTGCEEFEKLTNG [P0AF56] | 2.83 ± 0.045 | 2.24 ± 1.1 | – | 1.32 | 0.675 | 1.04 ± 0.074 | 1.62 ± 0.75 | 2.73 ± 2.1 | 1.12 | 0.655 | 1.33 ± 0.63 | 1.48 ± 0.49
MKNCVIVSAVRTAIGSFNGSLASTSAIDLGATVIKAAIERAKIDSQHVDEVIMGNVLQAGLGQNPARQALLKSGLAETVCGFTVNKVCGSGLKSVALAAQAIQAGQAQSIVAGGMENMSLAPYLLDAKARSGYRLGDGQVYDVILRDGLMCATHGYHMGITAENVAKEYGITREMQDELALHSQRKAAAAIESGAFTAEIVPVNVVTRKKTFVFSQDEFPKANSTAEALGALRPAFDKAGTVTAGNASGINDGAAALVIMEESAALAAGLTPLARIKSYASGGVPPALMGMGPVPATQKALQLAGLQLADIDLIEANEAFAAQFLAVGKNLGFDSEKVNVNGGAIALGHPIGASGARILVTLLHAMQARDKTLGLATLCIGGGQGIAMVIERLN | 4.78 ± 0.92 | 3.36 | – | 2.93 ± 0.073 | 2.808 ± 0.0077 | 3.34 | 5.45 ± 1.1 | 8 | 2.92 ± 0.27 | 3.67 ± 0.067 | 5.43 | –
MKLRWFAFLIVLLAGCSSKHDYTNPPWNAKVPVQRAMQWMPISQKAGAAWGVDPQLITAIIAIESGGNPNAVSKSNAIGLMQLKASTSGRDVYRRMGWSGEPTTSELKNPERNISMGAAYLNILETGPLAGIEDPKVLQYALVVSYANGAGALLRTFSSDRKKAISKINDLDADEFLEHVARNHPAPQAPRYIYKLEQALDAM [P0C960] | – | 4.98 ± 0.62 | 3.8 ± 0.54 | 3.57 ± 0.47 | 2.72 ± 0.08 | 1.97 ± 0.14 | 2.98 ± 0.34 | 6.46 ± 0.21 | 2.84 ± 0.17 | 3.2 | 4 ± 0.3 | 7.81 ± 0.18
MLQIIRGKLVIFLITLCLFVVYLGFDNNSNSDIVFYGHKTPKSVEIYLSEKNIIYKIINDQKISRGNGHFISIMVNNYRTHCGVVDINLNFFNDILYSVRLKNISKLENMEFCATKQRVYFSDKNKKASYKIINYGDYYDVDYYDNNLKNEVFDWIGKWS | – | – | – | – | – | 2.67 | 4.29 | – | – | – | 2.67 | 7
MGSTRKGMLNVLIAAVLWGSSGVCAQYIMEQSQMSSQFLTMTRLIFAGLILLTLSFVHGDKIFSIINNHKDAISLLIFSVVGALTVQLTFLLTIEKSNAATATVLQFLSPTIIVAWFSLVRKSRPGILVFCAILTSLVGTFLLVTHGNPTSLSISPAALFWGIASAFAAAFYTTYPSTLIARYGTLPVVGWSMLIGGLILLPFYARQGTNFVVNGSLILAFFYLVVIGTSLTFSLYLKGAQLIGGPKASILSCAEPLSSALLSLLLLGITFTLPDWLGTLLILSSVILISMDSRRRARKINRPARHK | – | 6.18 | 4.72 ± 1.2 | 5.26 | – | – | 6.04 | 13.3 | 5.29 | 12.8 | 5.97 | 12 ± 0.74
